Test [1] concerns the target T1, Human/cynomolgus monkey SLIT2-D2 (human and cynomolgus monkey (100% …, UniProt O94813 271-479)).
T1 construct: domain: D2; the crystallisation construct (271-479, His6) is kept as a separate molecule; also called Human and Cynomolgus Monkey SLIT2-D2; SLIT2 D2 domain
T1 sequence (looked up): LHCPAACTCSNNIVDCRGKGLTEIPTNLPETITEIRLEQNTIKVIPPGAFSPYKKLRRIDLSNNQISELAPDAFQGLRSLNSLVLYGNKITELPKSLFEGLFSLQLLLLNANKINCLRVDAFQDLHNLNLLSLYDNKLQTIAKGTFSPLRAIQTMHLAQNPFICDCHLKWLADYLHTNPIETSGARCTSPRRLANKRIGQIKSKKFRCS
Kind of test: SPR, ROBO2-Fc 2.2 captured by anti-human Fc on a C1 chip, SLIT2-D2 as analyte, 1:1 model. Here is the method:
HBS-EP was used as a diluent. […] An 8 point 2-fold dilution series was performed on the SLIT2 ligands, ranging from 2 nM to 15.6 pM using HBS-EPB as the diluent. […] Association of the indicated SLIT2 ligand was followed for 120 s and dissociation monitored for 180 s. The apparent binding affinity was determined using a simple 1:1 interaction model of the kinetic rate constants.

Test [2] has as its target T2, Rabbit SLIT3-N (rabbit, UniProt A0A5F9DK65 34-1126).
T2 construct: domain: SLIT3-N; d2-labelled in the HTRF assay
T2 sequence: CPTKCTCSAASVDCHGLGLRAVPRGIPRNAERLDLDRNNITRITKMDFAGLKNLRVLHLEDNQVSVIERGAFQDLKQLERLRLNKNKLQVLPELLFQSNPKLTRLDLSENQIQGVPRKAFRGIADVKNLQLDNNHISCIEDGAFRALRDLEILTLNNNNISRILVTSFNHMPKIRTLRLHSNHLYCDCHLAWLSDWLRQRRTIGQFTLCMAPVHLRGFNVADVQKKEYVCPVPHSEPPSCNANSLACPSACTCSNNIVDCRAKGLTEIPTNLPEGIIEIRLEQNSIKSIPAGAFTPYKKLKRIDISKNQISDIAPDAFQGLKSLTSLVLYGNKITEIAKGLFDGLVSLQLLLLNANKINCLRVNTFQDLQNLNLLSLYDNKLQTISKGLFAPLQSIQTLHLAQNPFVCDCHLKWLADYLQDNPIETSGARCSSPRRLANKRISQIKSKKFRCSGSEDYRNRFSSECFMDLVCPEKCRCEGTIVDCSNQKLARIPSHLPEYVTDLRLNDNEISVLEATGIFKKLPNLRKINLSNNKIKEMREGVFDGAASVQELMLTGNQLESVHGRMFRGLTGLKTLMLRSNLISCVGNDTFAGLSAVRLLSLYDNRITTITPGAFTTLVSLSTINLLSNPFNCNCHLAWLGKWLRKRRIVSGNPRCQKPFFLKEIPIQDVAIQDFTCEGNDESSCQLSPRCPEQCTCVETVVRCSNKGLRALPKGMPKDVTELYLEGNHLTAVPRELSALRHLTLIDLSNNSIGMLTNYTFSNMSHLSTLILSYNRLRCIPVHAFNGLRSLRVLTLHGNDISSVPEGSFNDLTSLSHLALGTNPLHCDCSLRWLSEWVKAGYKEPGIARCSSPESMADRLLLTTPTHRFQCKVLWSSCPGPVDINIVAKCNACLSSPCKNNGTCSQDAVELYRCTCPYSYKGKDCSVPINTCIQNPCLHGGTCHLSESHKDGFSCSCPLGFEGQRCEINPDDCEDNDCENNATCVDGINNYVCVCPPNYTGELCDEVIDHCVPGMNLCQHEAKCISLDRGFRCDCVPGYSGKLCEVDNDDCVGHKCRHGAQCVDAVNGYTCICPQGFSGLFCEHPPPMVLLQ
The test can be described thus: HTRF competition: d2-labelled rabbit SLIT3-N binding to human ROBO2 on HEK293 cells; geometric mean, n=3. As for the experimental part:
(§1) After incubation, fluorescence at 665 nm and 620 nm was measured on an Envision multilabel plate reader. The HTRF Ratio was calculated as follows: fluorescence at 665 nm/fluorescence at 620 nm×10,000. […] The IC₅₀ for each SLITx-N was determined using an 11-point, 4-fold dilution series with a top concentration of 4000 nM.

In test [3] the target is T3, Rabbit SLIT2-N (rabbit, UniProt G1TMD3 31-1121).
T3 construct: domain: SLIT2-N; d2-labelled in the HTRF assay
T3 sequence: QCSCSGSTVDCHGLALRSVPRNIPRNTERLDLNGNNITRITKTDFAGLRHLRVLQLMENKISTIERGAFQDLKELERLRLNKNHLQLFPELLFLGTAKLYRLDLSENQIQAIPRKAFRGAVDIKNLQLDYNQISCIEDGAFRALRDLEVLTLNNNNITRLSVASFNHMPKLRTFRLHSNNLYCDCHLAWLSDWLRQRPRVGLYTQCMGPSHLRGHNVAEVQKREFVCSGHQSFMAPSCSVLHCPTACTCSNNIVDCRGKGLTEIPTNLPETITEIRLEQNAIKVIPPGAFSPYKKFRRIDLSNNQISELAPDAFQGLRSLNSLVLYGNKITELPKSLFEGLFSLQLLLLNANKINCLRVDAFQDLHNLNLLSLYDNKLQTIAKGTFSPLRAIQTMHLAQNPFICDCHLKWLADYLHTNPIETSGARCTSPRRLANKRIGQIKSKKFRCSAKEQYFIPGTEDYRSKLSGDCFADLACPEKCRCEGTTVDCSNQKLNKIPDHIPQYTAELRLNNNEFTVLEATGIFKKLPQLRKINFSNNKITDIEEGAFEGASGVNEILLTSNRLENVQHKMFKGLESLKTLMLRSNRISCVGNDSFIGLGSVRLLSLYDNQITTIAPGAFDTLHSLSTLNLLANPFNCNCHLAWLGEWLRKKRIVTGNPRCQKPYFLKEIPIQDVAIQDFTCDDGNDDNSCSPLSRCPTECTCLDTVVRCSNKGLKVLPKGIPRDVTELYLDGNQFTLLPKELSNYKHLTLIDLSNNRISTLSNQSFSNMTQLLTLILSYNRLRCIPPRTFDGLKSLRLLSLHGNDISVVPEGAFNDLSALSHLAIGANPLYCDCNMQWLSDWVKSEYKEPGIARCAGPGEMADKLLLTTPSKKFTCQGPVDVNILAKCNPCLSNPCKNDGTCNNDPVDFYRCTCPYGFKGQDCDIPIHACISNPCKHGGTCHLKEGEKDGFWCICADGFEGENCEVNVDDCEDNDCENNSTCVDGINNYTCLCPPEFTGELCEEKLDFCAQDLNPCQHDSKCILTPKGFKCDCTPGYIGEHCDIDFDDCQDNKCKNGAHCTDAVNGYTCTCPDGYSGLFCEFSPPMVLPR
The test can be described thus: HTRF competition: d2-labelled rabbit SLIT2-N binding to human ROBO2 on HEK293 cells; geometric mean, n=3. Here is the method: as §1

B1: ROBO2-Fc 2.2 (Fc fusion)
chain: SRLRQEDFPPRIVEHPSDVIVSKGEPTTLNCKAEGRPTPTIEWYKDGERVETDKDDPRSHRMLLPSGSLFFLRIVHGRRSKPDEGSYVCVARNYLGEAVSRNASLEVALLRDDFRQNPTDVVVAAGEPAILECQPPRGHPEPTIYWKKDKVRIDDKEERISIRGGKLMISNTRKSDAGMYTCVGTNMVGERDSDPAELTVFERGGSGGSEPKSSDKTHTCPPCPAPEAAGAPSVFLFPPKPKDTLMISRTPEVTCVVVDVSHEDPEVKFNWYVDGVEVHNAKTKPREEQYNSTYRVVSVLTVLHQDWLNGKEYKCKVSNKALPAPIEKTISKAKGQPREPQVYTLPPSREEMTKNQVSLTCLVKGFYPSDIAVEWESNGQPENNYKTTPPVLDSDGSFFLYSKLTVDKSRWQQGNVFSCSVMHEALHNHYTQKSLSLSPG
notes: Labelled with Alexa Fluor 647 in the flow cytometry assay; also called ROBO-Fc 2.2; ROBO2-Fc 2.2-AF647
As for B1, binding in test [1] was put at a Kd of 0.293 nM. Also, the results for the IC50 in test [2] and in test [3] were 10.2 nM and 5.7 nM, respectively.
